Reference: the nanobody polyreactivity screen of Harvey et al. (2022)

Assay: yeast display, Sf9 membrane polyspecificity reagent, FACS + sequencing; frameworks hold sequencing errors
How it was run: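 Synthetic nanobody libraries on Saccharomyces cerevisiae BJ5465 were galactose-induced for 36–48 hours, stained 1 hour at 4 °C with 10% biotinylated, detergent-solubilized Sf9 membrane reagent and enriched on streptavidin microbeads. FACS then separated cells into low and high (top ~1%) gates by anti-HA (expression) and streptavidin (reagent binding) fluorescence. Genes were colony-PCR amplified, MiSeq 2 × 250 sequenced and CDR-length filtered. A clone's polyreactivity label is that of its gate of origin.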

Sequence | polyreactivity (PSR sort gate)
QFQLVESGGGLVQAGGSLRLSCADSGIIFRDNAMGWYRQAPGKERELVATIRRRGGGTYYADSVKGRFTISRDNAKNTVYLQMNSLKPEDSAVYYCAARVIKSSHDYDYWGQGTQVTVSS | low polyreactivity
QFQLVESGGGLVQAGGSLRLSCADSGSIFLLYVMGWYRQAPGKERELVAAISSGGSTNYADSVKGRFTISRDNAKNTVYLQMNSLKPEDTAVYYCNAVAVPQGVKLYDYWGQGTQVTVSS | low polyreactivity
QFQLVESGGGLVQAGGSLRLSCADSGSTFFNNAMGWYRHAPGKERELVAAITSSGGSTYYADSVKGRFSISRDNAKNTVYLQMNSLKPEDTAVYYCNKKSALYRRYDYWGQGTQVTVSS | low polyreactivity
QFQLVESGGGLVQAGGSLRLSCASSGSTFGYNAMGWYRQAPGKESELVAAISYSGGSTSYADSVKGRFTISRDNAKNTVYLQMNSLKPEDSAVYYCASDSYSQYSSQALEGFGYWGQGTQVTVSS | low polyreactivity
QFQLVESGGGLVQAGGSLRLSSAASGFTFVYYVMGWYRQAPGKERELVAAINAGGGSTYYADSVKGRITISRDNAKNTVYLQMYSLKPEDTAVYSFNARVRVRWGRNWSSYYYWGQGTQVTVSS | high polyreactivity
QFQLVESGGGLVQAGGSLRLSYAASGRTFSSYAMGWYRQAPGKERELVAAITKRGGNTYYADSVKGRFTISRDNAKNTVYLQMNSLKPEDTAVYYCAAGWERFRNYNYWGQGTQVTVSS | high polyreactivity
QFQLVESGGGLVQAGGSLRLTCAASGNIFADYAMGWYRQAPGKERELVAAISRGGITSYADSVKGRFTISRDNAKNTVYLQMNSRKPEDTAVYYCATVRYDVYDSLGFGYWGQGTQVTVSS | low polyreactivity
QFQLVESGGGLVQAGGSLRLTCAASVSTFSSYVMGWYRQAPGKDRELVAAISSIGGSTYYADSVKGRFTISRDNAKTNDYLQMNSLKPEDTAVYYCAAEPPGSTYEGGYWGQGTQVTVSS | low polyreactivity
QFQLVESGGGLVQAGGSLRSSCAASGFIFREYAMGWYRQAPGKERELVAAISTSGGDTYYADSVKGRFTISRDNAKNTVYLQMNSLKPEDTAVYYCAAEYDGYWDSNRGNYWGQGTQVTVSS | low polyreactivity
QFQLVESGGGLVQAGGSLSLSCAASGSTFSFNARGSYRQAPGKERELVAAITSGGSTYYADSVKGRFTISRDNAKNTVYLQMNSLKPEDTAVYYCAAAWAYGFGTRRYYWGQGTQVTVSS | high polyreactivity
QFQLVESGGGLVQAGGSLSLSCAASGSTFVWYAMGWYRPAPGKERELVAAINFGGTTYYADSVKGRFTISRDNAKNTVYLQMNSLKPEDNAVYYCATEYDYGYWYPDGWVIFDYWVQGTQVTVSS | low polyreactivity
QFQLVESGGGLVQAVVSLRLSCAASGSIFDIYDMGWYRQAPGKETELDAAIRSGDRTHYADSVKGRFTISRDNAKITVYLQMNSLKPEDTAVYYCAADRYIYLNREHDYWGQGTQVTVSS | low polyreactivity
QFQLVESGGGLVQSGGSLRLSCAASGSTFGYYTMGWYRPAPGTERELVAAITWSGGSTYYADSVKGRFTISRDNAKNTVYLPMNSLKPEDTAVYYCAADDYWTPFGYWGQGTQVTVSS | low polyreactivity
QFQLVESGGRLVQAGGSLRLSCAASGSIFYLNAIGSYRQAPGKERELVAAISRSGGRTYYADSVKGRFTISRDNAKNTVYLQMNSLIPEDTAVYYCAADVQAQGAYRGGYWGQGTQVTVSS | high polyreactivity
QFQLVESGRGLVQAGGSLRLSCAASGSTFSANAMGWYRQAPGKERELVAAISRSGTRTYYADSVKGRFTISRDNAKNTVYLQMNSLKPEDTAVYYCAAYVYQYGYDYWGQGTQVTVSS | high polyreactivity
QFQLVESGVGLVQAGARLRLSSAASGFTIKYYAMGWYRQAPGKERELVATITRGGSTNYADSVKGRFTISRDNAKNTVYLQMNSLNPEDTAVYYCAKGYPYYYYDYDSWGQGTQVTVSS | high polyreactivity

Sequence | polyreactivity (PSR sort gate)
QFQLVESGVVLVQAAASLRLSCAASGIIFQRNDMGWNRQAPGKETDLVANIRDGGITNADSVKGRFTISRDNAKNTVYLQMNCLKPEDTAVYYCARDDTSPGYGDQSSNAAYYYWGQGTQVTVSS | low polyreactivity
QFQLVESRGGLVKAGGSLRLTCAASGSILYQNTMGWYRQATGKERELVAAISGSGSRTYYADSVKGRFTISRDNAKNTVYLQMNSLKPEDTAVYYCAASGYWPFRSGFGYWGQGTQVTVSS | high polyreactivity
QFQLVESVGGLVQAGSRLRLSCAASGRTFIPYAMGWYRQAPGKERELVAAITSSGGLTYYADSVMGRFTISRDNAKNTVYLQMNSLKPEDTAVYYCNKYARGYDMDYWGHGTQVTVSS | high polyreactivity
QFQLVYSGGGLVQAGGSLRLSCAASGRTYGIYAMVWYRQAPGKERDLVAAISSDASTSYADSLKGRFTISRDNAKITVYLQMNSLKPEDTAVYYCGADPGTYYEWGYVYWGQGTQVTVSS | low polyreactivity
QGHLVESWGGLVQAGGSLRLSCAASGSIFKDNAMGWYRQAPGKERELVAAITWSGGSTYYADSVKGRFTSSRDNANNTVYLQMNSLKAEDTAVDRYKYDYWGQGTQVTVSS | low polyreactivity
QGQLEESGGCLVQAGGSLRLSCAASGIIFYKNAMGWYRPAPGKERELVAAISGSGGRTYYADSVKGRFTISRDNAKNTVYLQMNSLKPEVTAVSYCAARQPYRHGYESWGQGTQVTVSS | high polyreactivity
QGQLEESGGGLVQAGCSLRRSCAASGNIFLIYAMGWSRQAPGKEGELVAAISFSDDTTDYADSVKGRFTSSRDNAKNTAYIQMNSLKPEDTAVYYCAAELYYDVANTQYDYWGQGTQVTVSS | high polyreactivity
QGQLEESGGGLVQAGGSLRLSCAASGFIIYDYDMGRYRQAPGKERELVAAITYSGGSTYYADSVKGRFTISRDNAKNTVYLQMNSLKPEDTAVYHCAAVKSRYAVAVDYYYWGQGTQVTVSS | low polyreactivity
QGQLEESGGGLVQAGGSLRLSCAASGRIFRYNTMGWYRQAPGKERELVADITSSDSSTYYADSVKGRFTISRDNAKNTLYLQMNSLKPEDTEVYFCAARDSGYGWRYYYWGHGTQVTVSS | low polyreactivity
QGQLEESGGGLVQAGGSLRLSCAASGRTFAFYTMGWYRQAPGKERELVAAITRGGSTYYADSVKGRFTISRDNAKNTVYVQMNSLKPEDTAVYYCAASTRYYSQQFDYWGQGTQVTVSS | high polyreactivity
QGQLVESGEGLVQAGGSLRLRCAASGSIIRYYTMGGYRQAPGKERELVAAISWSGGSTYYADSVKGRFTISRDNANNTVYLQMNSLKPEETSVYYCNAVSFAYNPYSATYDYWGQGTQVTVSS | high polyreactivity
QGQLVESGGALVQAGGSLRLSCAASGSTFVRNAMGWYRPAPRKERELVAAISNVGSTYYADSVKGRFTISRDNAKNTVYFQKNSLKPEDTAVYYCTKQLWYHKFNYWGQGTQVTVSS | low polyreactivity
QGQLVESGGGLFQAGGSLRLSCAASGRIFRRYAMGWDIQAPGKERELVAAISRGGSTYYADSVKGRFTISRDNAKNTVYLQMNSLKPEDTAVYYCAAYSQSTSFGGYDSWGQGTQVTVSS | high polyreactivity
QGQLVESGGGLGQAGGSLRLSCAASGSTVVLYAMGWYRQARGKERELVAAISGGATTTYADSVKGRFTISRDNAKNTVYLQMNSLKPEDTAVYYCAADFSTFVLSGAAMDYWGQGTQVTVSS | low polyreactivity
QGQLVESGGGLGQEGCSLRLSCAASGNTFIINAMGWYRQARGNERELVAAITSGGSTNYADSVKGRFTISGDNAKNTVYLQMNSLKPEDTAVYDCAARTRLYYYKVRKYRMDYWGQGTQVTVSS | low polyreactivity
QGQLVESGGGLVQAGASLSLTSDDYRTIVKTYAMGSYRPAPGKESEMVAAISWRGGSTYYADSVKGRITISRDNAKNTVYLQMNSMKPVDTAVYYCVAVRNFGTRTLWYRYGYWGQGSQVTVSS | high polyreactivity
